What was measured:
[1] = biological target: T1, human CD40 (human, UniProt P25942 21-277); experiment: FACS, Raji cells
T1 construct: whole, on cells; also called hCD40; TNFRSF5
Protocol: (§1) The cells were incubated at 4° C. for 1 hours in the dark. After the incubation, the cells were rinsed twice by adding pre-chilled PBS at 100 μL/well, and centrifuged at 500 g at 4° C. for 5 minutes, and the supernatant was discarded. Then, a fluorescent secondary antibody (goat anti-human IgG (H+L) secondary antibody, Alexa Fluor® 488 conjugate, Invitrogen, #A11013, 1:1000 dilution) was added at 100 μL/well, and the cells were incubated at 4° C. for 30 minutes in the dark. The cells were washed twice with pre-chilled PBS at 200 μL/well, and centrifuged at 500 g at 4° C. for 5 minutes, and the supernatant was discarded. Finally, the cells were resuspended in pre-chilled PBS at 200 μL/well. The fluorescence signal values were read using a BD FACS CANTOII flow cytometer or ACEA NovoCyte flow cytometer, and the data were processed and analyzed using FlowJo v10 software (FlowJo, LLC).

[2] = biological target: T2, human PD-L1 (human, UniProt Q9NZQ7 19-290); experiment: FACS, NCI-H226 cells
T2 construct: whole, on cells; also called hPD-L1; CD274
T2 sequence (Q9NZQ7 19-290): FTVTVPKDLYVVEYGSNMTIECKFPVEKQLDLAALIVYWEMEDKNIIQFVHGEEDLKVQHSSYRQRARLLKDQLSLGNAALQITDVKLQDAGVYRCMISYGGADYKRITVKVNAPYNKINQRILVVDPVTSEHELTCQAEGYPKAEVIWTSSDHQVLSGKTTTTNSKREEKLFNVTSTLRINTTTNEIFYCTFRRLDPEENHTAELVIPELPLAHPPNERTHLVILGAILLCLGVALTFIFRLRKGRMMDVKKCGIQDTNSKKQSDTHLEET
Protocol: (§2) Specifically, the cells expressing PD-L1 were digested and resuspended in PBS buffer containing 2% BSA. The cells were adjusted to a cell density of 1×10⁶ cells/mL, respectively. The cells were seeded in a 96-well V-bottom plate (Corning, #3894) at 100 μL/well, and the antibody to be tested at 2×final concentration with 4-fold concentration gradient dilution was then added at 100 μL/well. The cells were incubated at 4° C. for 2 hours in the dark. After the incubation, the cells were rinsed twice by adding pre-chilled PBS containing 2% BSA at 100 μL/well, and centrifuged at 500 g at 4° C. for 5 minutes, and the supernatant was discarded. […] The cells were washed twice by adding pre-chilled PBS containing 2% BSA at 100 µL/well, and centrifuged at 500 g at 4° C. for 5 minutes, and the supernatant was discarded. Finally, the cells were resuspended in pre-chilled PBS buffer containing 2% BSA at 200 μL/well. The fluorescence signal values were read using a BD FACS CANTOII flow cytometer or ACEA NovoCyte flow cytometer, and the data were processed and analyzed using FlowJo v10 software (FlowJo, LLC).

[3] = biological target: T2, human PD-L1; experiment: cell-based or functional assay
[4] = biological target: T1, human CD40; experiment: cell-based or functional assay
[5] = biological target: T1, human CD40; experiment: FACS, CHO-K1/hCD40 cells
Protocol: as §1

[6] = biological target: T2, human PD-L1; experiment: FACS, CHO-K1/hPD-L1 cells
Protocol: as §2

[7] = biological target: T3, cynomolgus monkey CD40 (cynomolgus monkey); experiment: FACS, CHO-K1/cyCD40 cells
T3 construct: whole, on cells; also called cyCD40
Protocol: as §1

[8] = biological target: T4, cynomolgus monkey PD-L1 (cynomolgus monkey); experiment: FACS, CHO-K1/cyPD-L1 cells
T4 construct: whole, on cells; also called cyPD-L1
Protocol: as §2

T1 sequence (P25942 21-277): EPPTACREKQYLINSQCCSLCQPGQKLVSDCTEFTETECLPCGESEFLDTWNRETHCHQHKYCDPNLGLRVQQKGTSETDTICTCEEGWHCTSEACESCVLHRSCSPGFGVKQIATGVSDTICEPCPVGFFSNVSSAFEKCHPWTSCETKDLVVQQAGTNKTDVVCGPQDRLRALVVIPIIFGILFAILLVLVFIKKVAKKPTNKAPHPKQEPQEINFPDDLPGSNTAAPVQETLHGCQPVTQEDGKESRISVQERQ

| Binder | EC50 [1] [nM] | Maximum MFI [1] [MFI] | EC50 [2] [nM] | Maximum MFI [2] [MFI] | EC50, Jurkat-NFAT-hPD1 reporter [3] [nM] | Maximum (RLU), Jurkat-NFAT-hPD1 reporter [3] [RLU] | EC50, HEK293-hCD40-NFκB reporter, + CHO-K1 [4] [nM] | EC50, HEK293-hCD40-NFκB reporter, + CHO-K1/hPD-L1 [4] [nM] | Maximum (RLU), HEK293-hCD40-NFκB reporter, + CHO-K1 [4] [RLU] | Maximum (RLU), HEK293-hCD40-NFκB reporter, + CHO-K1/hPD-L1 [4] [RLU] | EC50 [5] [nM] | Maximum MFI [5] [MFI] | EC50 [6] [nM] | Maximum MFI [6] [MFI] | EC50 [7] [nM] | Maximum MFI [7] [MFI] | EC50 [8] [nM] | Maximum MFI [8] [MFI] |
| --- | --- | --- | --- | --- | --- | --- | --- | --- | --- | --- | --- | --- | --- | --- | --- | --- | --- | --- |
| PR006919 (bispecific antibody, human IgG1, kappa, VH of PR006246 (PD-L1) - GS_5 - heavy chain of CD40 IgG PR006496; human IgG1 L234A/L235A/G237A; also called PD-L1×CD40) heavy: QVQLVESGGGVVQPGMSLRLSCAASGFDFSSYGMYWVRQAPGKGQEWVASIRYTGTEKHYADSVKGRFTISRDNSKNTLYLEMNSLRVEDTAVYYCAKNRAIFGVIPDDSDIRGQGTMVTVSSGGGGSQVQLVQSGAEVKKPGASVKVSCKASGYTFAGYYMYWVRQAPGQGLEWMGWINPDSGAPTYAQKFQGRVTMTRDTSISTAYMELSRLRSDDTAVYYCAREKIYYGSGNYYPSFDYWGQGTLVTVSSASTKGPSVFPLAPSSKSTSGGTAALGCLVKDYFPEPVTVSWNSGALTSGVHTFPAVLQSSGLYSLSSVVTVPSSSLGTQTYICNVNHKPSNTKVDKKVEPKSCDKTHTCPPCPAPEAAGAPSVFLFPPKPKDTLMISRTPEVTCVVVDVSHEDPEVKFNWYVDGVEVHNAKTKPREEQYNSTYRVVSVLTVLHQDWLNGKEYKCKVSNKALPAPIEKTISKAKGQPREPQVYTLPPSREEMTKNQVSLTCLVKGFYPSDIAVEWESNGQPENNYKTTPPVLDSDGSFFLYSKLTVDKSRWQQGNVFSCSVMHEALHNHYTQKSLSLSPGK light: DIQLTQSPSFLSASVGDRVTITCRASQGISSYLAWYQQKPGKAPKLLIYAASTLQSGVPSRFSGSGSGTEFTLTISSLQPEDFATYYCQQLFSYPWTFGQGTKVEIKRTVAAPSVFIFPPSDEQLKSGTASVVCLLNNFYPREAKVQWKVDNALQSGNSQESVTEQDSKDSTYSLSSTLTLSKADYEKHKVYACEVTHQGLSSPVTKSFNRGEC | 1.24 | 7360 | 0.389 | 870 | 0.359 | 4920 | 0.144 | 0.0106 | 24500 | 31400 | 2.53 | 18900 | 0.96 | 19600 | 3.37 | 76200 | 0.622 | 4540 |
| PR007268 (bispecific antibody, human IgG1, kappa, VH of PR006246 (PD-L1) - GS_5 - heavy chain of CD40 IgG PR006497; human IgG1 L234A/L235A/G237A; also called PD-L1×CD40) heavy: QVQLVESGGGVVQPGMSLRLSCAASGFDFSSYGMYWVRQAPGKGQEWVASIRYTGTEKHYADSVKGRFTISRDNSKNTLYLEMNSLRVEDTAVYYCAKNRAIFGVIPDDSDIRGQGTMVTVSSGGGGSQVQLVQSGAEVKKPGASVKVSCKASGYTFAGYYMYWVRQAPGQGLEWMGWINPDSGAPTYAQKFQGRVTMTRDTSISTAYMELSRLRSDDTAVYYCAREKIYYGSGNYYPSFDYWGQGTLVTVSSASTKGPSVFPLAPSSKSTSGGTAALGCLVKDYFPEPVTVSWNSGALTSGVHTFPAVLQSSGLYSLSSVVTVPSSSLGTQTYICNVNHKPSNTKVDKKVEPKSCDKTHTCPPCPAPEAAGAPSVFLFPPKPKDTLMISRTPEVTCVVVDVSHEDPEVKFNWYVDGVEVHNAKTKPREEQYNSTYRVVSVLTVLHQDWLNGKEYKCKVSNKALPAPIEKTISKAKGQPREPQVYTLPPSREEMTKNQVSLTCLVKGFYPSDIAVEWESNGQPENNYKTTPPVLDSDGSFFLYSKLTVDKSRWQQGNVFSCSVMHEALHNHYTQKSLSLSPGK light: DIQLTQSPSFLSASVGDRVTITCRASQGISSYLAWYQQKPGKAPKLLIYAASTLQSGVPSRFSGSGSGTEFTLTISSLQPEDFATYYCQQLYSYPWTFGQGTKVEIKRTVAAPSVFIFPPSDEQLKSGTASVVCLLNNFYPREAKVQWKVDNALQSGNSQESVTEQDSKDSTYSLSSTLTLSKADYEKHKVYACEVTHQGLSSPVTKSFNRGEC | 1.38 | 7430 | 0.42 | 869 | 0.181 | 2810 | 0.266 | 0.0571 | 156000 | 286000 | 1.65 | 16300 | 1.08 | 19600 | 2.8 | 65700 | 0.68 | 4550 |
| PR007070 (bispecific antibody, human IgG1, kappa, VH of PR005878 (PD-L1) - GS_5 - heavy chain of CD40 IgG PR006495; human IgG1 L234A/L235A/G237A; also called PD-L1×CD40) heavy: QVQLVESGGGVVQPGMSLRLSCAASGFTFSSYGMYWVRQAPGKGQEWVASIRYTGTEKHYADSVKGRFTISRDNSKNTLYLEMNSLRVEDTAVYYCAKNRALFGVIPDDSDIRGQGTMVTVSSGGGGSQVQLVQSGAEVKKPGASVKVSCKASGYTFAGYYMYWVRQAPGQGLEWMGWINPDSGAPTYAQKFQGRVTMTRDTSISTAYMELSRLRSDDTAVYYCAREKIYYGSGNYYPSFDYWGQGTLVTVSSASTKGPSVFPLAPSSKSTSGGTAALGCLVKDYFPEPVTVSWNSGALTSGVHTFPAVLQSSGLYSLSSVVTVPSSSLGTQTYICNVNHKPSNTKVDKKVEPKSCDKTHTCPPCPAPEAAGAPSVFLFPPKPKDTLMISRTPEVTCVVVDVSHEDPEVKFNWYVDGVEVHNAKTKPREEQYNSTYRVVSVLTVLHQDWLNGKEYKCKVSNKALPAPIEKTISKAKGQPREPQVYTLPPSREEMTKNQVSLTCLVKGFYPSDIAVEWESNGQPENNYKTTPPVLDSDGSFFLYSKLTVDKSRWQQGNVFSCSVMHEALHNHYTQKSLSLSPGK light: DIQLTQSPSFLSASVGDRVTITCRASQGISSYLAWYQQKPGKAPKLLIYAASTLQSGVPSRFSGSGSGTEFTLTISSLQPEDFATYYCQQLASYPWTFGQGTKVEIKRTVAAPSVFIFPPSDEQLKSGTASVVCLLNNFYPREAKVQWKVDNALQSGNSQESVTEQDSKDSTYSLSSTLTLSKADYEKHKVYACEVTHQGLSSPVTKSFNRGEC | 1.36 | 6670 | 0.313 | 862 | 0.175 | 2830 | 0.136 | 0.0138 | 26900 | 31700 | 2.67 | 15400 | 1.15 | 20500 | 15.6 | 93200 | 0.779 | 4870 |
| PR007151 (bispecific antibody, human IgG1, kappa, VH of PR005878 (PD-L1) - GS_5 - heavy chain of CD40 IgG PR006504; human IgG1 L234A/L235A/G237A; also called PD-L1×CD40) heavy: QVQLVESGGGVVQPGMSLRLSCAASGFTFSSYGMYWVRQAPGKGQEWVASIRYTGTEKHYADSVKGRFTISRDNSKNTLYLEMNSLRVEDTAVYYCAKNRALFGVIPDDSDIRGQGTMVTVSSGGGGSQVQLVQSGAEVKKPGASVKVSCKASGYTFAGYYMYWVRQAPGQGLEWMGWINPDSGAPTYAQKFQGRVTMTRDTSISTAYMELSRLRSDDTAVYYCAREKIYYGSGNYYPSFDYWGQGTLVTVSSASTKGPSVFPLAPSSKSTSGGTAALGCLVKDYFPEPVTVSWNSGALTSGVHTFPAVLQSSGLYSLSSVVTVPSSSLGTQTYICNVNHKPSNTKVDKKVEPKSCDKTHTCPPCPAPEAAGAPSVFLFPPKPKDTLMISRTPEVTCVVVDVSHEDPEVKFNWYVDGVEVHNAKTKPREEQYNSTYRVVSVLTVLHQDWLNGKEYKCKVSNKALPAPIEKTISKAKGQPREPQVYTLPPSREEMTKNQVSLTCLVKGFYPSDIAVEWESNGQPENNYKTTPPVLDSDGSFFLYSKLTVDKSRWQQGNVFSCSVMHEALHNHYTQKSLSLSPGK light: DIQLTQSPSFLSASVGDRVTITCRASQGISSYLAWYQQKPGKAPKLLIYAASTLQSGVPSRFSGSGSGTEFTLTISSLQPEDFATYYCQQLVSYPWTFGQGTKVEIKRTVAAPSVFIFPPSDEQLKSGTASVVCLLNNFYPREAKVQWKVDNALQSGNSQESVTEQDSKDSTYSLSSTLTLSKADYEKHKVYACEVTHQGLSSPVTKSFNRGEC | 1.3 | 6610 | 0.215 | 928 | 0.35 | 4640 | 0.425 | 0.0362 | 4000 | 4900 | 2.36 | 16000 | 1.14 | 20700 | 3.76 | 75400 | 0.754 | 4930 |
